Columns and labels:
Cdk2-cyclin E = target: T1, Cdk2-cyclin E (Homo sapiens, UniProt P24941); assay: In vitro kinase assay with Cdk2-cyclin E; format: biochemical; conditions: recombinant protein as substrate, control experiment, autoradiography
T1 construct: host or cells: baculovirus expression system
Method: FIG. 1B. In vitro kinase assay. Wild type (WT) survivin, survivin(T34A) (T34A), or control (H1) were incubated with baculovirus-expressed p34^cdc2-cyclin B1 or cdk2-cyclin E in kinase buffer plus 10 μCi γ-^32P-ATP for 30 min at 30° C. Samples were separated by SDS gel electrophoresis and radioactive bands were visualized by autoradiography. Equal protein loading was confirmed by Coomassie blue staining of the gel.
(§1) Transfection experiments. For transient transfection, HeLa cells in C-6 tissue culture plates (Costar, Cambridge, Mass.) at ˜60-70% confluency, were incubated in 1 ml of serum-free OptiMEM medium (Life Technologies, Gaithersburg, Md.) for 20 min, and transfected with 2.5 μg of the various plasmid cDNAs plus 9 μl Lipofectamine (Life Technologies). After a 5 h incubation at 37° C., the mixture was aspirated and substituted with complete growth medium for 48-72 h. To generate stable YUSAC-2 transfectants, a survivin(T34A) cDNA was inserted into the HindIII-SpeI sites of the pTet-splice vector (Dr. D. Schatz, Yale University School of Medicine), downstream of the regulatory sequences of the Tet-resistance operon (TetO). […] Gated GFP-expressing cells were analyzed for DNA content by flow cytometry on a FACSort (Becton Dickinson, San Jose, Calif.) using a Cell Quest software. […]

caspase-8 = target: T2, caspase-8 (Homo sapiens, UniProt Q14790); assay: Co-immunoprecipitation of survivin and caspase-8 from HeLa cells; format: binding; conditions: transfected HeLa cells
T2 construct: endogenous in cells; host or cells: HeLa
Method: The experimental conditions are the same as in A, except that HA-survivin and HA-survivin(T34A) immunoprecipitates were separately immunoblotted with antibodies to caspase-8 or HA. S, supernatant of HA-survivin immunoprecipitate. Arrow, position of ˜55 kDa proform caspase-8.
as §1, with “(TetO). YUSAC-2 cells were transfected with 0.8 μg pTet-T34A, 0.8 μg of the transactivation/selection plasmid ptTA-Neo and 5 μl Lipofectamine in 1 ml of OptiMem.” for “(TetO).”

T2 sequence (Q14790 whole entry): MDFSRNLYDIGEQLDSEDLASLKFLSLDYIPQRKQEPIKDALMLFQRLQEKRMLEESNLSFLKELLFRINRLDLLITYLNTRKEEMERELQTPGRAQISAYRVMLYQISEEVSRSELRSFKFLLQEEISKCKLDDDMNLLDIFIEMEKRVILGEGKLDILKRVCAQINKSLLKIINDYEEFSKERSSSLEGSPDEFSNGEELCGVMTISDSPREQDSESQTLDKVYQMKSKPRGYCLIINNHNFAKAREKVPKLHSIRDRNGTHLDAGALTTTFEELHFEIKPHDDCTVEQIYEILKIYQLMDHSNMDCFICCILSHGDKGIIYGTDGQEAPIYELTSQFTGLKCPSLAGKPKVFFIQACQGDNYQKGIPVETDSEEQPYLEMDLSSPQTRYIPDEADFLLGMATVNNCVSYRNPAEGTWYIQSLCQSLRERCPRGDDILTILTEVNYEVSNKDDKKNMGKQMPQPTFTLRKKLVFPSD

## survivin(T34A): dominant-negative, non-phosphorylatable survivin mutant with Thr34→Ala substitution, expressed from transfected cDNA (also HA- or GFP-tagged)
Cdk2-cyclin E
  phosphorylation by Cdk2-cyclin E: did not phosphorylate
caspase-8
  caspase-8 in immunoprecipitates by Western blotting: did not contain another upstream initiator caspase, caspase-8

Source: patent US7553821B2, “Methods for selectively modulating survivin apoptosis pathways” (Yale University, priority 2000, dated 2009)
